Numbered stars: 1 amine (or outer) side, 2 acyl side, 3 side chain; on linkers, the order of the positions; unused ones are H or OH. Bridge positions count the residues as written; N and C are the ends. Square brackets hold non-standard residues; d marks the D form. Side chains are listed from the residue outwards. Ends that are not written are not given here. * marks the point of attachment. C20 diacid = O=C(O)CCCCCCCCCCCCCCCCCCC(=O)*; γGlu = O=C(O)[C@H](CCC(=O)[*:2])N[*:1]; Hyp = O=C(O)[C@@H]1C[C@@H](O)CN1; Trx = NC[C@H]1CC[C@H](C(=O)O)CC1; AEEA = NCCOCCOCC(=O)O

The target of one assay is T1, hAMY3R (human, UniProt P30988).
T1 sequence 1: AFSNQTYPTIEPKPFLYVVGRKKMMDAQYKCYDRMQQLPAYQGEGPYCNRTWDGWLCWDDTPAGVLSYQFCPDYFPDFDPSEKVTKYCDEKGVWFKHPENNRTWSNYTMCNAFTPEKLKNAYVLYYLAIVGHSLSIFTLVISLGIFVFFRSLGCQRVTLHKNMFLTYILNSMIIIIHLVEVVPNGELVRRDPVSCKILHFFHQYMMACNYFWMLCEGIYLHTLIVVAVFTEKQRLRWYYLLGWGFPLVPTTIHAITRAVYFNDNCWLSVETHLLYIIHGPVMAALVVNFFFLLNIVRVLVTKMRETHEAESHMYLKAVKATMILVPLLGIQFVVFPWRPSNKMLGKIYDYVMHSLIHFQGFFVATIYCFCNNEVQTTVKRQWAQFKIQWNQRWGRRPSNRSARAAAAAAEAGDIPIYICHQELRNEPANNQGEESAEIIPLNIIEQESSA
T1 sequence 2: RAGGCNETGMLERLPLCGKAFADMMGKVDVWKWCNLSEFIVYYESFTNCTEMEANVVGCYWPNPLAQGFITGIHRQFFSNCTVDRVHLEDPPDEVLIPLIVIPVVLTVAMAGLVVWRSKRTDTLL
Kind of assay: cell-based or functional assay.

In another assay the target is hAM1R (human, UniProt Q16602). Put plainly: cell-based or functional assay.

B1: SEQ ID NO: 123 (peptide)
peptide: GCRFGTCTVQRLAHFLYQFTDKDGAIAPRTKIGSQGY
As to B1, in the assay with hAMY3R, the “hAMY3R EC50 (cAMP)” value stood at 0.027 nM. The “hAM1R EC50 (cAMP)” value in the assay with hAM1R worked out at 31.7 nM.

B2: SEQ ID NO: 141 (peptide)
peptide: GCRFGTCTVQRLAHQIYQFTDKDKDNVAPRTNISPQG[Hyp]-NH2
modifications: disulfide 2-7 (inferred); ends not checked
Turning to B2, in the assay with hAMY3R, the “hAMY3R EC50 (cAMP)” value was found to be 0.036 nM. Besides, the “hAM1R EC50 (cAMP)” value with hAM1R turned out to be 258 nM.

B3: SEQ ID NO: 135 (peptide)
peptide: GCRFGTCTVQRLAHQIYQFTDKDKDNVAPRSNVGPQG[Hyp]-NH2
modifications: disulfide 2-7 (inferred); ends not checked
Take B3: the “hAMY3R EC50 (cAMP)” value in the assay with hAMY3R turned out to be 0.033 nM. In addition, in the assay with hAM1R, the “hAM1R EC50 (cAMP)” value came out at 68.4 nM.

B4: SEQ ID NO: 127 (peptide)
peptide: GCRFGTCTVQRLAHQIYQFTDKDKDNVAPRSKIGPQG[Hyp]-NH2
modifications: disulfide 2-7 (inferred); ends not checked
With B4, the “hAMY3R EC50 (cAMP)” value with hAMY3R amounted to 0.028 nM. For the same molecule, the “hAM1R EC50 (cAMP)” value in the assay with hAM1R was found to be 107 nM.

B5: SEQ ID NO: 137 (peptide)
peptide: {C20 diacid-γGlu}-KCNTATCTVARLAHQINQFTDKDKDPVAPPTNVGSNG[Hyp]-NH2
modifications: disulfide 2-7 (inferred); ends not checked
For the molecule B5, the “hAMY3R EC50 (cAMP)” value with hAMY3R is 0.034 nM. For the same molecule, the “hAM1R EC50 (cAMP)” value with hAM1R is more than 5000 nM.

B6: SEQ ID NO: 145 (peptide)
peptide: GCRFGTCTVQRLAHQIYQFTDKDKDNVAPRSNVSPQG[Hyp]-NH2
modifications: disulfide 2-7 (inferred); ends not checked
For B6, the “hAMY3R EC50 (cAMP)” value with hAMY3R stood at 0.039 nM. In the assay with hAM1R, the “hAM1R EC50 (cAMP)” value was found to be 2980 nM.

B7: SEQ ID NO: 134 (peptide)
peptide: GCRFGTCTVQRLAHQIYQFTDKDKDNVAPRTKVSPNG[Hyp]-NH2
modifications: disulfide 2-7 (inferred); ends not checked
As for B7, in the assay with hAMY3R, the “hAMY3R EC50 (cAMP)” value is 0.032 nM. Further, the “hAM1R EC50 (cAMP)” value with hAM1R amounted to 2980 nM.

B8: SEQ ID NO: 128 (peptide)
peptide: KCNTATCATQRLANFLVHSSNNFGAIAPSTKIGPNGY
B8: the “hAMY3R EC50 (cAMP)” value with hAMY3R was determined as 0.028 nM. In addition, the “hAM1R EC50 (cAMP)” value with hAM1R worked out at 130 nM.

B9: SEQ ID NO: 148 (peptide)
peptide: KCNTATCATQRLANFLVHSSNNFGAILSSTKIGSNGY
B9: the “hAMY3R EC50 (cAMP)” value in the assay with hAMY3R is 0.04 nM. Besides, in the assay with hAM1R, the “hAM1R EC50 (cAMP)” value was more than 5000 nM.

B10: SEQ ID NO: 122 (peptide)
peptide: {C20 diacid-γGlu}-KCNTATCTVQRLAEQIYQFTDKAKDNVAPPTNVGSNG[Hyp]-NH2
modifications: disulfide 2-7 (inferred); ends not checked
For the molecule B10, in the assay with hAMY3R, the “hAMY3R EC50 (cAMP)” value amounted to 0.026 nM. In addition, the “hAM1R EC50 (cAMP)” value with hAM1R is more than 5000 nM.

B11: SEQ ID NO: 124 (peptide)
peptide: GCRFGTCTVQRLAHQIYQFTDKDKDNVAPRTKIGPNG[Hyp]-NH2
modifications: disulfide 2-7 (inferred); ends not checked
Consider B11, for which, in the assay with hAMY3R, the “hAMY3R EC50 (cAMP)” value was 0.027 nM. Further, the “hAM1R EC50 (cAMP)” value with hAM1R was 34.8 nM.

B12: SEQ ID NO: 125 (peptide)
peptide: GCRFGTCTVQRLAHQIYQFTDKDKDNVAPRTNVSPQG[Hyp]-NH2
modifications: disulfide 2-7 (inferred); ends not checked
Consider B12, for which the “hAMY3R EC50 (cAMP)” value with hAMY3R came out at 0.027 nM. Also, in the assay with hAM1R, the “hAM1R EC50 (cAMP)” value stood at 2980 nM.

B13: SEQ ID NO: 133 (peptide)
peptide: {C20 diacid-γGlu}-KCNTATCTVARLAEQIYQFTDKDKDPVAPPTNVGSNG[Hyp]-NH2
modifications: disulfide 2-7 (inferred); ends not checked
As to B13, the “hAMY3R EC50 (cAMP)” value with hAMY3R was found to be 0.031 nM. Further, the “hAM1R EC50 (cAMP)” value in the assay with hAM1R is more than 5000 nM.

B14: SEQ ID NO: 129 (peptide)
peptide: GCRTGTCTVQRLAHQIYQFTDKDKDNVAPRSKVGPQGY
B14: in the assay with hAMY3R, the “hAMY3R EC50 (cAMP)” value stood at 0.029 nM. For the same molecule, in the assay with hAM1R, the “hAM1R EC50 (cAMP)” value came out at 367 nM.

B15: SEQ ID NO: 138 (peptide)
peptide: GCRTGTCTVQRLAHQIYQFTDKDKDNVAPRSNVGPQGY
As for B15, the “hAMY3R EC50 (cAMP)” value in the assay with hAMY3R worked out at 0.035 nM. For the same molecule, in the assay with hAM1R, the “hAM1R EC50 (cAMP)” value was found to be 2980 nM.

B16: SEQ ID NO: 142 (peptide)
peptide: GCRTGTCTVQRLAHQIYQFTDKDKDNVAPRTNIGPNGY
In the case of B16, the “hAMY3R EC50 (cAMP)” value with hAMY3R was 0.036 nM. The “hAM1R EC50 (cAMP)” value with hAM1R was found to be 2980 nM.

B17: SEQ ID NO: 131 (peptide)
peptide: GCRFGTCTVQRLAHQIYQFTDKDKDNVAPRSNVSPQGY
On to B17, for which the “hAMY3R EC50 (cAMP)” value with hAMY3R is 0.031 nM. The “hAM1R EC50 (cAMP)” value with hAM1R was found to be 33.8 nM.

B18: SEQ ID NO: 130 (peptide)
peptide: {C20 diacid-γGlu}-KCNTATCTVDRLAHQIAQFTDKDKDPVAPPTNVGSNG[Hyp]-NH2
modifications: disulfide 2-7 (inferred); ends not checked
Regarding B18, in the assay with hAMY3R, the “hAMY3R EC50 (cAMP)” value worked out at 0.03 nM. In addition, the “hAM1R EC50 (cAMP)” value with hAM1R is more than 5000 nM.

B19: SEQ ID NO: 136 (peptide)
peptide: KCNTATCTVQRLAEQIK([AEEA-AEEA-γGlu-C20 diacid])QFTDKDKDNVAPPTNVGSNG[Hyp]-NH2
modifications: disulfide 2-7 (inferred); ends not checked
As to B19, the “hAMY3R EC50 (cAMP)” value with hAMY3R was 0.033 nM. Besides, in the assay with hAM1R, the “hAM1R EC50 (cAMP)” value is more than 5000 nM.

B20: SEQ ID NO: 146 (peptide)
peptide: GCRFGTCTVQRLAHQIYQFTDKDKDNVAPRTKISPQG[Hyp]-NH2
modifications: disulfide 2-7 (inferred); ends not checked
In the case of B20, in the assay with hAMY3R, the “hAMY3R EC50 (cAMP)” value is 0.04 nM. In addition, in the assay with hAM1R, the “hAM1R EC50 (cAMP)” value stood at 2980 nM.

B21: SEQ ID NO: 144 (peptide)
peptide: {C20 diacid-γGlu}-KCNTATCTVQRLAEQIAQFTDKDKDPVAPPTNVGSNG[Hyp]-NH2
modifications: disulfide 2-7 (inferred); ends not checked
Regarding B21, the “hAMY3R EC50 (cAMP)” value in the assay with hAMY3R stood at 0.038 nM. Moreover, the “hAM1R EC50 (cAMP)” value with hAM1R is more than 5000 nM.

B22: SEQ ID NO: 139 (peptide)
peptide: GCRTGTCTVQRLAHQIYQFTDKDKDNVAPRSKVGPNG[Hyp]-NH2
modifications: disulfide 2-7 (inferred); ends not checked
Regarding B22, the “hAMY3R EC50 (cAMP)” value with hAMY3R came to 0.035 nM. For the same molecule, the “hAM1R EC50 (cAMP)” value with hAM1R was 2980 nM.

B23: SEQ ID NO: 132 (peptide)
peptide: GCRFGTCTVQRLAHQIYQFTDKDKDNVAPRTKVSPQG[Hyp]-NH2
modifications: disulfide 2-7 (inferred); ends not checked
In the case of B23, the “hAMY3R EC50 (cAMP)” value with hAMY3R was determined as 0.031 nM. In the assay with hAM1R, the “hAM1R EC50 (cAMP)” value was 2980 nM.

B24: SEQ ID NO: 147 (peptide)
peptide: GCRIGTCTVQRLAHQIYQFTDKFKDNVAPRSKISPQT[Hyp]-NH2
modifications: disulfide 2-7 (inferred); ends not checked
With B24, the “hAMY3R EC50 (cAMP)” value with hAMY3R stood at 0.04 nM. Also, the “hAM1R EC50 (cAMP)” value with hAM1R was found to be 3110 nM.

B25: SEQ ID NO: 121 (peptide)
peptide: GCRTGTCTVQRLAHQIYQFTDKDKDNVAPRSNVGPQG[Hyp]-NH2
modifications: disulfide 2-7 (inferred); ends not checked
Turning to B25, the “hAMY3R EC50 (cAMP)” value in the assay with hAMY3R was found to be 0.026 nM. Moreover, in the assay with hAM1R, the “hAM1R EC50 (cAMP)” value is 2980 nM.

B26: SEQ ID NO: 126 (peptide)
peptide: {C20 diacid-Trx-γGlu-AEEA-AEEA}-KCNTATCTVQRLAEQIYQFTDKDKDNVAPPTNVGSNG[Hyp]-NH2
modifications: disulfide 2-7 (inferred); ends not checked
As for B26, the “hAMY3R EC50 (cAMP)” value with hAMY3R was found to be 0.027 nM. Also, the “hAM1R EC50 (cAMP)” value with hAM1R is more than 5000 nM.

B27: SEQ ID NO: 13 (peptide)
peptide: KCNTATCTVQRLAHAIYQFTDKDKDNVAPPTNVGSNG[Hyp]-NH2
modifications: disulfide 2-7 (inferred); ends not checked
As to B27, the “hAMY3R EC50 (cAMP)” value with hAMY3R came to 0.007 nM. Moreover, the “hAM1R EC50 (cAMP)” value with hAM1R was more than 5000 nM.

B28: SEQ ID NO: 140 (peptide)
peptide: GCRFGTCTVQRLAHQIYQFTDKDKDNVAPRTNISPQGY
On to B28, for which, in the assay with hAMY3R, the “hAMY3R EC50 (cAMP)” value is 0.036 nM. Also, the “hAM1R EC50 (cAMP)” value in the assay with hAM1R came to 31.4 nM.

B29: SEQ ID NO: 15 (peptide)
peptide: KCNTSTCTVARLADQITQFSDKDKANVSPPTEVGPNS[Hyp]-NH2
modifications: disulfide 2-7 (inferred); ends not checked
As for B29, the “hAMY3R EC50 (cAMP)” value in the assay with hAMY3R turned out to be 0.007 nM. The “hAM1R EC50 (cAMP)” value with hAM1R was more than 5000 nM.

B30: SEQ ID NO: 143 (peptide)
peptide: GCRTGTCTVQRLAHQIYQFTDKDKDNVAPRTKVGPQG[Hyp]-NH2
modifications: disulfide 2-7 (inferred); ends not checked
For B30, the “hAMY3R EC50 (cAMP)” value with hAMY3R was 0.038 nM. The “hAM1R EC50 (cAMP)” value in the assay with hAM1R is 2980 nM.

B31: SEQ ID NO: 14 (peptide)
peptide: KCNTATCTVQRLAHQIAQFTDKDKDNVAPPTNVGSNG[Hyp]-NH2
modifications: disulfide 2-7 (inferred); ends not checked
Consider B31, for which the “hAMY3R EC50 (cAMP)” value with hAMY3R came to 0.007 nM. For the same molecule, the “hAM1R EC50 (cAMP)” value in the assay with hAM1R was more than 5000 nM.

The values are drawn from patent publication US12139520B2 (priority 2020, dated 2024).
